Test results as given in patent publication US20250270339A1 (Alector, published 2025).

Columns and labels:
[1] = molecular target: T1, Full length Mouse TfR on CHO cells (mouse, UniProt Q62351 1-763); assay: FACS, CHO+muTfR
T1 construct: also called CHO + muTfR
Method: (§1) A total of 1536 anti-TfR hybridoma supernatants were initially screened for their ability to differentially bind CHO cells overexpressing human or mouse TfR cells compared to CHO parental cells by FACS. Overexpressing cells were harvested, washed and labeled with Pacific Blue, FITC and Pacific Orange dyes (ThermoFisher) to create uniquely barcoded cell populations. Barcoded cells (5×10⁴ of each cell population) were aliquoted into 96-well U-bottom plates and incubated with 50 μl of hybridoma cell culture supernatant or […] of commercially available purified mouse anti-human TfR monoclonal antibody (Sigma Aldrich, Cat #SAB4700515) and rat anti-mouse TfR antibody (Invitrogen, Waltham, MA, Cat #R17217) on ice for 30 minutes. After this primary incubation, the supernatants were removed via centrifugation, the cells were washed twice with 175 μl of ice-cold FACS buffer (PBS+1% FBS+2 mM EDTA), and the cells were then further incubated on ice for 20 minutes with anti-mouse IgG Fc-allophycocyanin (APC) or anti-rat IgG Fc-APC (Jackson Labs, Cat #115-136-071 and Cat #112-136-071, respectively) (diluted 1:1000). Following this secondary antibody incubation, the cells were again washed twice with ice-cold FACS buffer and resuspended in a final volume of 50 μl of FACS buffer. Binding intensity on cells was analyzed using the FACS Canto system (BD Biosciences), and the ratio of APC Mean Fluorescence Intensity (MFI) on each barcoded cell population was determined for each anti-TfR hybridoma supernatant tested.

[2] = molecular target: T2, Full length human TfR on CHO cells (human, UniProt P02786 1-760); assay: FACS MFI, supernatant
T2 construct: also called CHO + huTfR; CHO + hTfR
Method: as §1

[3] = molecular target: T1, Full length Mouse TfR on CHO cells; assay: FACS MFI, supernatant
Method: as §1

[4] = molecular target: T3, huTfR Apical Domain-Avi-His (human, biotin on the Avi tag (BirA) where captured on streptavidin); assay: ELISA OD450, supernatant
T3 construct: also called huTfR apical Avi-His; hTfR Apical
T3 chain: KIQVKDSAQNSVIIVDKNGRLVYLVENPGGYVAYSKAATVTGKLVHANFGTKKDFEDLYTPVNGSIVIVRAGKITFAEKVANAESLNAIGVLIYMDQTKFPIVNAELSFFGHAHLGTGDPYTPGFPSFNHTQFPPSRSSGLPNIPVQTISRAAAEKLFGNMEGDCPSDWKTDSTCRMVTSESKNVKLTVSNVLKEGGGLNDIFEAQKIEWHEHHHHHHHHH
Method: Hybridoma culture supernatants from 319 hybridomas obtained as described above were screened for their ability to bind Avi-His-tagged huTfR ECD, huTfR apical domain, and muTfR ECD (as described in Example 1) as compared to binding to an irrelevant Avi-His-tagged control protein. Briefly, 96-well polystyrene plates were coated with 5 μg/ml of streptavidin (Thermo Fisher, Cat #PI21125) in coating buffer (0.05M carbonate buffer, pH 9.6, Sigma, Cat #C3041) overnight at 4° C. Coated plates were then blocked with ELISA diluent (PBS+0.5% BSA+0.05% Tween20) for one hour. Blocking buffer was removed and Avi-His-tagged human TfR, human TfR apical domain, mouse TfR and an irrelevant Avi-His-tagged protein were added at 1 μg/ml in ELISA diluent and captured for 1 hour at room temperature. After washing three times with 300 μl of PBST (PBS+0.05% Tween20, Thermo 28352), the hybridoma cell culture supernatants were added (50 μl/well) to each well. After 30 minutes of incubation at room temperature, the plates were washed three times with 300 μl of PBST. Anti-mouse IgG Fc-HRP or anti-rat IgG Fc-HRP (Jackson Immunoresearch, Cat #115-035-071 and 112-036-071, respectively) secondary antibodies were diluted 1:5000 in ELISA diluent, added to each well at 50 μl/well, and incubated for 30 minutes at room temperature with shaking. After a final set of washes (3×300 μl in PBST), 50 μl/well of BioFx TMB substrate (Surmodics, Cat #TMBW-1000-01) was added to the wells. The reaction was then quenched after 5-10 mins with 50 μl/well of 2N sulfuric acid. The plates were read for absorbance at 450 nm on a SpectraMax M5 (Molecular Devices, Sunnyvale, CA) using SoftMax Pro software.

T2 sequence (P02786 whole entry): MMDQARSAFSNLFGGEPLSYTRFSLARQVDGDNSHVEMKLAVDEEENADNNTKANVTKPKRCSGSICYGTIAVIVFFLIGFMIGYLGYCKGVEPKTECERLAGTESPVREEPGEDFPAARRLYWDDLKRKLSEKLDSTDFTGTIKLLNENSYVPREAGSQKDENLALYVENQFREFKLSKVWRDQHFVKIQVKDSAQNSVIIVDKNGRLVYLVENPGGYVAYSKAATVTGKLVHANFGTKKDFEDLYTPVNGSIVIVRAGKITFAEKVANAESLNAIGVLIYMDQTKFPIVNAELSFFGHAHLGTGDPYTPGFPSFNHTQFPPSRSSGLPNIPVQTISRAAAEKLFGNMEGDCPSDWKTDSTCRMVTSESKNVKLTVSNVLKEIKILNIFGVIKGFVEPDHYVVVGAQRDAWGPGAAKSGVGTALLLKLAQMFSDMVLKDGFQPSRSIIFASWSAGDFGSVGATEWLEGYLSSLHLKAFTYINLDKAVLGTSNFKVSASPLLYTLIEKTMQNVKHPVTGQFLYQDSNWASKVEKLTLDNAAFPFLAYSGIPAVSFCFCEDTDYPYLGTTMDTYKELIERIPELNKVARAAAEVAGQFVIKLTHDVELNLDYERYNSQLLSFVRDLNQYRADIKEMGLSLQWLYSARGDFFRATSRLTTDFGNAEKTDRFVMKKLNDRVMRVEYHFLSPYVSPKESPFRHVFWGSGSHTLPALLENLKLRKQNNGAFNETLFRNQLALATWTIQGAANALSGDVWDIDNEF
T1 sequence (Q62351 whole entry): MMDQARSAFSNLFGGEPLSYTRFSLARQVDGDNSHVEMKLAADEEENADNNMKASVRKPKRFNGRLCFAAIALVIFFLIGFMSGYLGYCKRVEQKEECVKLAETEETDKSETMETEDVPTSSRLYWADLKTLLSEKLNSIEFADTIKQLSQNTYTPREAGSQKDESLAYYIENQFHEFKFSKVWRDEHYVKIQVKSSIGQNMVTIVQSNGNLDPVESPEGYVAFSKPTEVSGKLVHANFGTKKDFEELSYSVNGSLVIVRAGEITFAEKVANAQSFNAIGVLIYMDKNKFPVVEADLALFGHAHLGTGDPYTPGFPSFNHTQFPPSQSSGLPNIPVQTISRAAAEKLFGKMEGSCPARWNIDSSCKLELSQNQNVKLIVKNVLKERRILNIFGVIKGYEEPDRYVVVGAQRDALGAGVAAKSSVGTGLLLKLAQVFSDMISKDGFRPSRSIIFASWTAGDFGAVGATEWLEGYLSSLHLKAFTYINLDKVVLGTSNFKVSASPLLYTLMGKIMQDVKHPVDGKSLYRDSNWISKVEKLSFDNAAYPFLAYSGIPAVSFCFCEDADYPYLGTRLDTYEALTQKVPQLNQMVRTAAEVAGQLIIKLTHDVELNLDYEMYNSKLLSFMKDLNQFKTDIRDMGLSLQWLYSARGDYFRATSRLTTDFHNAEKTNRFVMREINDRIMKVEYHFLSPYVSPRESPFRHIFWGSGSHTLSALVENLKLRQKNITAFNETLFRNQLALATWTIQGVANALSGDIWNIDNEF

| Binder | binding result [1] | fold over parental (CHO WT) [2] [fold] | fold over parental (CHO WT) [3] [fold] | ratio over irrelevant protein [4] [fold] |
| --- | --- | --- | --- | --- |
| TfR16 (mouse hybridoma antibody) (antibody, V domains shown, mouse IgG in hybridoma supernatant) VH: EVQLQQSGTVLARPGASVKMSCKTSGYSFSSYWMHWVKQRPGQGLEWIGTIYPGNSDTIYNQNFKGKAKLTAVTSASTAYMELSSLTNEDSAVYYCSTIYYFSNWGQGTTLTVSS VL: DIKMTQSPSPMFASLGERVTITCKASQDINSYLSWFQQKPGKSPKTLIYRANRLLDGVPSRFSGSGSGQDYSLTISSLDYEDVGIYYCLQYDVFPYTFGGGTKLEIK | no binding | 534 | 1 | 18 |
| TfR25 (mouse hybridoma antibody) (antibody, V domains shown, mouse IgG in hybridoma supernatant) VH: QVQLQQSGPELVKPGTSVKMSCKASGYTFTNYYIHWMKQRPGQGLEWIGWIYPGDGNTHYNERFKGKTTLTADKSSSTVYMFLTSLTSEDSAIYFCAKDKDMPGMDYWGQGTSVTVSS VL: DMVMTQSPSSLTVTAGEKVTMSCKSSQSLFNSENQKNYLTWYQQKPGQPPKLLISWASTRESGVPDRFTGSGSGTDFTLTINSVQAEDLAVYYCQNDYSYPLTFGAGTKLELK | no binding | 135 | 1 | 33 |
| TfR26 (mouse hybridoma antibody) (antibody, V domains shown, mouse IgG in hybridoma supernatant) VH: QVQLHQSGPELVKPGASVKMSCKASGYTFTNYYIHWVKQRPGQGLEWIGWIYPGDGVTHYNEKFKGKTTLTADKSSSTAYMLLSSLTSEDSAIYFCARDKDVPGMDYWGQGTSVTVSS VL: DIVMTQSPSSLTVTSGEKVTMSCKSSQSLLNSENQKNYLTWYQQKPGQPPKLLIYWASTRESGVPDRFTGSGSGPDFTLTISSVQAEDLAVYYCQNDYSYPLTFGAGTKLELK | no binding | 285 | 1 | 35 |
| TfR13 (mouse hybridoma antibody) (antibody, V domains shown, mouse IgG in hybridoma supernatant) VH: DVKLVESGGGLVKPGGSLKLSCAASGFTFSSYTMSWVRQTPEKRLEWVATISSGGSYTYFPDSVKGRFTISRDNAKNTLYLQMSSLKSEDTAIYYCTRAHYYAYDYWGQGTTLTVSS VL: DILLTQSPAILSVSPGERVSFSCRASQSIGTSIHWYQQRTNGSPRLLIKYASGSISGIPSRFSGSGSGTDFTLSINSVESEDIADYYCQQSNSWPTSTFGAGTKLELK | no binding | 392 | 1 | 22 |
| TfR15 (mouse hybridoma antibody) (antibody, V domains shown, mouse IgG in hybridoma supernatant) VH: QVQLQQPGSELVRPGASVKLSCKASGYTFTSYWMHWVKQRPGQGLEWIGNIYPGSGSSNYDEKFKSKATLTVDTSSSTAYMQLNSLTSEDSAVYYCTRSSYYGNFDTMDNWGQGTSVTVSS VL: QIVLTQSPAIMSASPGEKVTMTCSASSSIRYMNWYQQKPVTSPKRWIYDTSTLASGVPARFSGSGSGTSYSLTISSMEAEDAATYYCHQRSSYPWTFGGGTKLEIK | no binding | 119 | 1 | 34 |
| TfR22 (mouse hybridoma antibody) (antibody, V domains shown, mouse IgG in hybridoma supernatant) VH: DVQLQESGPGLVKPSQSLSLTCTVTGYSITSDYAWNWIRQFPGNKLEWMGYISYSGSTRYNPSLKSRISITRDTSKNQFFLQLNSVTTEDTATYYCTSWGYRYLEDYWGQGTSVTVSA VL: QIVLTQSPAIMSASPGERVTMTCSASSSISSMHWYQQKPGTSPKKWIYDTSKLASGVPARFSGSGSGTSYSLTISSMEAEDAATYYCHQRSSYPWTFGGGTKLEIK | no binding | 290 | 1 | 33 |
| TfR17 (mouse hybridoma antibody) (antibody, V domains shown, mouse IgG in hybridoma supernatant) VH: DVQLQESGPGLVKPSQSLSLTCTVTGYSITSDYAWNWIRQFPGNKLEWMGYISYSGSTSYNPSLKSRISITRDTSKNQFFLQLNSVTTEDTATYYCASWGYRYLEDYWGQGTSVTVSS VL: QIVLTQSPAIMSASPGEKVTMTCSASSSISSMHWYQQKPGTSPKRWISDTSKLASGIPARFSGSGSGTSYSLTISSMAAEDAAAYYCHQRSSYPWTFGGGTKLEIK | no binding | 73 | 1 | 26 |

The next lines start with the values.

| binding result [1] | fold over parental (CHO WT) [2] [fold] | fold over parental (CHO WT) [3] [fold] | ratio over irrelevant protein [4] [fold] | Binder |
| --- | --- | --- | --- | --- |
| no binding | 279 | 1 | 34 | TfR27 (mouse hybridoma antibody) (antibody, V domains shown, mouse IgG in hybridoma supernatant) VH: QVQLQQPGSELVRPGASVKLSCKASGYTFTSYWMHWVKQRPGQGLEWIGNIYPGTGSTNYDEKFKSKATLTVDTSSSTAYMQLSSLTSEDSAVYYCTRSSYYGNFDTMDYWGQGTSVTVSS VL: QIFLTQSPAIMSASPGERVTMTCSASSSIRYMNWYQQKPGTSPKRWIYDTSELASGVPARFTGSGSGTSYSLTISSMEAEDAATYYCHQRSGYPWTFGGGTKLEIK |
| no binding | 279 | 1 | 31 | TfR23 (mouse hybridoma antibody) (antibody, V domains shown, mouse IgG in hybridoma supernatant) VH: DVQLQESGPGLVKPSQSLSLTCTVTGYSITSDYAWNWIRQFPGNKLEWMGYISYSGSTSYNPSLKSRISITRDTSKNQFFLQLNSVTTEDTATYYCTSWGYRYLEDYWGQGTSVTVSS VL: QIVLTQSPAIMSASPGERVTMTCSASSSISSLHWYQQKPGTSPKKWIYDTSKLASGVPARFSGSGSGTSYSLAISSMEAEDAATYYCHQRSSYPWTFGGGTKLEIK |
| no binding | 157 | 1 | 30 | TfR28 (mouse hybridoma antibody) (antibody, V domains shown, mouse IgG in hybridoma supernatant) VH: DVQLQESGPGLVKPSQSLSLTCTVTGYSITSDYAWNWIRQFPGNKLEWMGYISYSGSTSYNPSLRSRISITRDTSKNQFFLQLNSVTTEDTATYYCAIRGYRYEEDYWGQGTTLTVSS VL: QIVLTQSPAIMSASPREKVTMTCSASSSISSMHWYQQKPGTSPKRWIYDTSKLASGVPARFSGSGSGTSYSLTISSMEAEDAATYYCHQRSSYPWTFGGGTKLEIK |
| no binding | 90 | 1 | 20 | TfR31 (mouse hybridoma antibody) (antibody, V domains shown, mouse IgG in hybridoma supernatant) VH: DVQLQESGPGLVKPSQSLSLTCTVTGYSITSDYAWNWIRQFPGNKLEWMGYISYSGRTSYNPSLKSRISFTRDTSKNQFFLQLNSVTTEDTATYYCAGWGYRYLEDYWGQGTSVTVSS VL: QIVLTQSPAIMSASPGEKVTMTCSASSSISSMHWYQLKPGTSPKKWIYDTSKLASGVPARFSGSGSGTSYSLTISSMEAEDAATYYCHQRSSYPWTFGGGTKLEIK |
| no binding | 137 | 1 | 25 | TfR32 (mouse hybridoma antibody) (antibody, V domains shown, mouse IgG in hybridoma supernatant) VH: QVQLQQSGADLVRPGTSVKVSCKASGNAFSNYLIEWVKQRPGQGLEWIGVINPGSGETNYNEKFKGKATLTADKSSSTAYMQLSSLTSDDSAVYFCAIRYDGPLLDHWGQGTSVTVSS VL: SIVMTQTPKFLLVSAGDRVTITCKASQSVSNDVAWFQQKPGQSPKLLIYYASNRYTGVPDRFTGSGYGTDFTFTIRNVQAEDLAVYFCQQDYISPTFGAGTKLELK |
